According to PMC7246612, “The In Vitro Non-Tetramerizing ZapA^I83E Mutant Is Unable to Recruit ZapB to the Division Plane In Vivo in Escherichia coli” (International Journal of Molecular Sciences, 2020):

How the values were obtained:
[1] = target: T1, mKO–PBP1a (inner membrane protein PBP1a fused to mKO) (UniProt P02918 1-850); experiment: FRET or BRET; in vivo FRET in E. coli TB28 ∆zapA cells; mKO fusion (donor) and mCh fusion (acceptor) expressed from plasmids; energy transfer efficiency (EfA) by spectral unmixing; details: partners not purified
T1 construct: PBP1a, inner membrane protein; Negative control partner in the FRET assay; also called pBB004; pSAV–mKO–PBP1a; source: E. coli TB28 ∆zapA, expressed from plasmid pBB004, in living cells; not shown: mKO, N-terminal, kept
T1 sequence (looked up): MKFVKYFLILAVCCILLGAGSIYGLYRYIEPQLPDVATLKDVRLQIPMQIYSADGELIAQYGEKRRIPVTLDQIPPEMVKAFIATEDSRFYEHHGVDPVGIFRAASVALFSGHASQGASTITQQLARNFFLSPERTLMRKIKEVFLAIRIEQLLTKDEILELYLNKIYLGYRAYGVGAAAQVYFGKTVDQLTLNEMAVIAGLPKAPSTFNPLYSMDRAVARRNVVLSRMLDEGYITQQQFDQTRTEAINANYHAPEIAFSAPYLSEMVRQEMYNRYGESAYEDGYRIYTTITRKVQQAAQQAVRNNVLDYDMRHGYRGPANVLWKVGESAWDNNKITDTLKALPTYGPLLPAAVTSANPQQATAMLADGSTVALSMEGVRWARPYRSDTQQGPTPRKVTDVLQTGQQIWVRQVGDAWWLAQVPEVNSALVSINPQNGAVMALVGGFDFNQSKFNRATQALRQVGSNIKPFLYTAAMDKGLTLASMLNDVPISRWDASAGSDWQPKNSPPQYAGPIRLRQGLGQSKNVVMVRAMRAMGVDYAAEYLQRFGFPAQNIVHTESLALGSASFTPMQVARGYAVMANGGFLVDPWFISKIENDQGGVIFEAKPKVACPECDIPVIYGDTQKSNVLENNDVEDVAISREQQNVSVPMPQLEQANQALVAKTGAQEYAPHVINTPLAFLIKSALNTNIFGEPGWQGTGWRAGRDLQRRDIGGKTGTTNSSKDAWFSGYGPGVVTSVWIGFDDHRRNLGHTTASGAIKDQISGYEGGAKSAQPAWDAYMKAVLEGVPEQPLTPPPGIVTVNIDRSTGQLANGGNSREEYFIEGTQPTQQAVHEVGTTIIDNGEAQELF

mKO–FtsZ (filamenting …) = target: T2, mKO–FtsZ (filamenting temperature-sensitive Z fused to mKO) (Escherichia coli, UniProt P0A9A6 1-383); experiment: as above; details: partners not purified
T2 construct: filamenting temperature-sensitive Z (FtsZ), Escherichia coli; also called pSAV072; pSAV–mKO–FtsZ; source: E. coli TB28 ∆zapA or WT strain, expressed from plasmid pSAV072, in living cells; not shown: mKO, N-terminal, kept
T2 sequence (looked up): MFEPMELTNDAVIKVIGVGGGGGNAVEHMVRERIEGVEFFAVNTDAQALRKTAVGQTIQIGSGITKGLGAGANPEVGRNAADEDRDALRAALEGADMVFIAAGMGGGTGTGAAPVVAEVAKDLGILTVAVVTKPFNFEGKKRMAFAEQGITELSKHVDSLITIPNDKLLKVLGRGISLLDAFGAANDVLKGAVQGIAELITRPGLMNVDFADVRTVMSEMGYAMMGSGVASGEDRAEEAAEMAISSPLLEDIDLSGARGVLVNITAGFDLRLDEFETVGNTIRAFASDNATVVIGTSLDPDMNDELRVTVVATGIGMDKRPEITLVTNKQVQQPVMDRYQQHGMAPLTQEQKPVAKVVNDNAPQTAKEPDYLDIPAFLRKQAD

| Binder | EfA (energy transfer efficiency) [1] [%] | EfA (energy transfer efficiency) (mKO–FtsZ (filamenting …)) [%] |
| --- | --- | --- |
| mCh–ZapA (wild-type Z-associated protein A fused to mCh) (natural protein, Escherichia coli, UniProt P0ADS2 1-109, looked up, Z-associated protein A (ZapA), Escherichia coli; also called mCh–ZapA^WT; ZapA^WT; source: E. coli TB28 ∆zapA or WT strain, expressed from plasmid pSAV077, in living cells; not shown: mCh, N-terminal, kept) MSAQPVDIQIFGRSLRVNCPPDQRDALNQAADDLNQRLQDLKERTRVTNTEQLVFIAALNISYELAQEKAKTRDYAASMEQRIRMLQQTIEQALLEQGRITEKTNQNFE | < 1.7 | 4 |
| mCh–ZapA^I83E (in vitro non-tetramerizing ZapA mutant fused to mCh) (natural protein, Escherichia coli, UniProt P0ADS2 1-109, looked up, Z-associated protein A (ZapA), Escherichia coli, with I83E; made by exchanging zapA in pSAV077 with zapA^I83E from pRP071; also called pNM137; pTHV–mCh–ZapA^I83E; source: E. coli TB28 ∆zapA or WT strain, expressed from plasmid pNM137, in living cells; not shown: mCh, N-terminal, kept) MSAQPVDIQIFGRSLRVNCPPDQRDALNQAADDLNQRLQDLKERTRVTNTEQLVFIAALNISYELAQEKAKTRDYAASMEQRERMLQQTIEQALLEQGRITEKTNQNFE | < 1.7 | – |
| mCh–PBP1b (PBP1b fused to mCh) (natural protein, UniProt P02919 1-844, looked up, PBP1b; Negative control in the FRET assay; also called pBB008; pTHV–mCh–PBP1b; source: E. coli TB28 ∆zapA, expressed from plasmid pBB008, in living cells; not shown: mCh, N-terminal, kept) MAGNDREPIGRKGKPTRPVKQKVSRRRYEDDDDYDDYDDYEDEEPMPRKGKGKGKGRKPRGKRGWLWLLLKLAIVFAVLIAIYGVYLDQKIRSRIDGKVWQLPAAVYGRMVNLEPDMTISKNEMVKLLEATQYRQVSKMTRPGEFTVQANSIEMIRRPFDFPDSKEGQVRARLTFDGDHLATIVNMENNRQFGFFRLDPRLITMISSPNGEQRLFVPRSGFPDLLVDTLLATEDRHFYEHDGISLYSIGRAVLANLTAGRTVQGASTLTQQLVKNLFLSSERSYWRKANEAYMALIMDARYSKDRILELYMNEVYLGQSGDNEIRGFPLASLYYFGRPVEELSLDQQALLVGMVKGASIYNPWRNPKLALERRNLVLRLLQQQQIIDQELYDMLSARPLGVQPRGGVISPQPAFMQLVRQELQAKLGDKVKDLSGVKIFTTFDSVAQDAAEKAAVEGIPALKKQRKLSDLETAIVVVDRFSGEVRAMVGGSEPQFAGYNRAMQARRSIGSLAKPATYLTALSQPKIYRLNTWIADAPIALRQPNGQVWSPQNDDRRYSESGRVMLVDALTRSMNVPTVNLGMALGLPAVTETWIKLGVPKDQLHPVPAMLLGALNLTPIEVAQAFQTIASGGNRAPLSALRSVIAEDGKVLYQSFPQAERAVPAQAAYLTLWTMQQVVQRGTGRQLGAKYPNLHLAGKTGTTNNNVDTWFAGIDGSTVTITWVGRDNNQPTKLYGASGAMSIYQRYLANQTPTPLNLVPPEDIADMGVDYDGNFVCSGGMRILPVWTSDPQSLCQQSEMQQQPSGNPFDQSSQPQQQPQQQPAQQEQKDSDGVAGWIKDMFGSN | < 1.7 | – |
